Experimental data reported in paper PMC4970725.

Legend:
IL-18 (Homo sapiens) = IL-18 (Homo sapiens) (UniProt Q14116); settings: cited from earlier work
[1] = target: IL-18 receptor on NK-92MI cells (human (endogenous in NK-92MI)) (UniProt Q13478)
IL-18 receptor on NK-92MI cells (human (endogenous in NK-92MI)), sequence (Q13478 19-541, chain 1 of 2): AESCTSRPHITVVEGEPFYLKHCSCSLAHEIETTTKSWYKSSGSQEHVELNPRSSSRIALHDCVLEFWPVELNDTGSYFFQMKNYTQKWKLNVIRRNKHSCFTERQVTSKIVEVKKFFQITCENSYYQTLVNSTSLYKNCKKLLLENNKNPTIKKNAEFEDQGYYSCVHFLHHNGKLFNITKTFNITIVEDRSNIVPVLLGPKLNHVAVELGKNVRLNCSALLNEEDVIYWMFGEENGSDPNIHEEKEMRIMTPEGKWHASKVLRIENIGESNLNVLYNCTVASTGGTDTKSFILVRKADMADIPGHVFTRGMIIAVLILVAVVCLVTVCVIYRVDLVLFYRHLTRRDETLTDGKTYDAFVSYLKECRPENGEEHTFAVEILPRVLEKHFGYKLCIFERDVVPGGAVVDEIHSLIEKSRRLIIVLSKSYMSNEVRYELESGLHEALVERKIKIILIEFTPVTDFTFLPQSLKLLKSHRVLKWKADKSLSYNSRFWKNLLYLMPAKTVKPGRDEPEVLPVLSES
IL-18 receptor on NK-92MI cells (human (endogenous in NK-92MI)), sequence (O95256 20-599, chain 2 of 2, further chain): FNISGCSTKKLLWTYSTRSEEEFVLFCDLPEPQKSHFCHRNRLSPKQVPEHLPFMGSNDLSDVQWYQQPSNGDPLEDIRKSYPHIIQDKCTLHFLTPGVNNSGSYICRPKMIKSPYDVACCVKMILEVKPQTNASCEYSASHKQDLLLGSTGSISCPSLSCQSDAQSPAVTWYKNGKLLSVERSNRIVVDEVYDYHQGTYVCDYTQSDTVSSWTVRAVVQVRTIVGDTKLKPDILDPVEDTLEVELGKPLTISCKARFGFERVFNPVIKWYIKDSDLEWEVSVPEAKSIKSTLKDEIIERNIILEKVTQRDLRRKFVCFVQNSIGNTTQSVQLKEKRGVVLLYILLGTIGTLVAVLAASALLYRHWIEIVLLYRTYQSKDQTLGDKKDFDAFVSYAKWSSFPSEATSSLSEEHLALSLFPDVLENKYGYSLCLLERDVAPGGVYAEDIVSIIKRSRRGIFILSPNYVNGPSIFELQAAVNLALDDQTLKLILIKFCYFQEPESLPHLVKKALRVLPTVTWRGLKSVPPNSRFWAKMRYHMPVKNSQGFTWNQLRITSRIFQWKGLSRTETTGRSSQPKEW

IL-18 (Homo sapiens), sequence (Q14116 37-193): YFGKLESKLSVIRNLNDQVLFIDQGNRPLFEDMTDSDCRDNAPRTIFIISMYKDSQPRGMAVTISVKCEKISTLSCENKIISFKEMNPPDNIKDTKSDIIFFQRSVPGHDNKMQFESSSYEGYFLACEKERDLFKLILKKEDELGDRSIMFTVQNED
IL-18BP, sequence (O95998 31-194): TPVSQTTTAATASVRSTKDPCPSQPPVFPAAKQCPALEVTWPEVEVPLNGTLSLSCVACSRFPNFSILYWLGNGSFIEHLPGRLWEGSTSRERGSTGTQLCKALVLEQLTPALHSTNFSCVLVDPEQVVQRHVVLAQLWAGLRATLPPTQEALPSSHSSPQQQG

Row | Substance | Kd (IL-18 (Homo sapiens)) | IFN-γ in the supernatant (ELISA) of NK-92MI cells stimulated with 0.5 ng/ml IL-12 and 12.5-200 ng mL^-1 IL-18; activity against wild-type IL-18 at 200 ng mL^-1 (times higher than wild-type IL-18) [1]
1 | IL-18BP (from UniProt O95998) | 0.4 nM | –
2 | recombinant mature human interleukin-18 E6K (ligand) | – | 9.3
3 | recombinant mature human interleukin-18 T63A (ligand) | – | 3.9
